These results are taken from the Human Domainome abundance scans (Beltran et al. 2025).

B1: POU domain, class 4, transcription factor 1, residues 266 to 347; numbered along this chain, Q01851 (parent)
chain: RELEAFAERFKQRRIKLGVTQADVGSALANLKIPGVGSLSQSTICRFESLTLSHNNMIALKPILQAWLEEAEGAQREKMNKP

± gives the uncertainty stated by the source.

The series covers variants of B1. Briefly: abundance fitness (aPCA) (normalised: wild type 0, dead -1); higher = more abundant; growth selection in yeast, the domain comes from the species named. To be noted: Homo sapiens.
For RELEAFAERFKQRRIKLGVTQADVGSALANLKIPGVGSLSQSTICRFESLHLSHNNMIALKPILQAWLEEAEGAQREKMNKP, the abundance fitness was 0.003 ± 0.036.
The value for RELEAFAERFKQRRIKLGVTQADVGSALANLKIPGVGSLSQSTICRFESLSLSHNNMIALKPILQAWLEEAEGAQREKMNKP was 0.018 ± 0.031; that for RELEAFAERFKQRRIKLGVTQADVGSALANLKIPGVGSLSQSTICRFESLCLSHNNMIALKPILQAWLEEAEGAQREKMNKP was -0.106 ± 0.048.
As for RELEAFAERFKQRRIKLGVTQADVGSALANLKIPGVGSLSQSTICRFESLFLSHNNMIALKPILQAWLEEAEGAQREKMNKP, the figure is -0.406 ± 0.053; as for RELEAFAERFKQRRIKLGVTQADVGSALANLKIPGVGSLSQSTICRFESLNLSHNNMIALKPILQAWLEEAEGAQREKMNKP, -0.042 ± 0.04; as for RELEAFAERFKQRRIKLGVTQADVGSALANLKIPGVGSLSQSTICRFESLPLSHNNMIALKPILQAWLEEAEGAQREKMNKP, -0.877 ± 0.085.
On to RELEAFAERFKQRRIKLGVTQADVGSALANLKIPGVGSLSQSTICRFESLDLSHNNMIALKPILQAWLEEAEGAQREKMNKP, for which the abundance fitness was determined as 0.034 ± 0.046.
The value for RELEAFAERFKQRRIKLGVTQADVGSALANLKIPGVGSLSQSTICRFESLGLSHNNMIALKPILQAWLEEAEGAQREKMNKP was -0.021 ± 0.039; that for RELEAFAERFKQRRIKLGVTQADVGSALANLKIPGVGSLSQSTICRFESLVLSHNNMIALKPILQAWLEEAEGAQREKMNKP was -0.105 ± 0.038.
For RELEAFAERFKQRRIKLGVTQADVGSALANLKIPGVGSLSQSTICRFESLYLSHNNMIALKPILQAWLEEAEGAQREKMNKP, the abundance fitness was -0.368 ± 0.05.
Turning to RELEAFAERFKQRRIKLGVTQADVGSALANLKIPGVGSLSQSTICRFESLQLSHNNMIALKPILQAWLEEAEGAQREKMNKP, the abundance fitness worked out at 0.054 ± 0.038.
As for RELEAFAERFKQRRIKLGVTQADVGSALANLKIPGVGSLSQSTICRFESLKLSHNNMIALKPILQAWLEEAEGAQREKMNKP, the figure is 0.015 ± 0.044; as for RELEAFAERFKQRRIKLGVTQADVGSALANLKIPGVGSLSQSTICRFEYLTLSHNNMIALKPILQAWLEEAEGAQREKMNKP, -0.396 ± 0.044.
The value for RELEAFAERFKQRRIKLGVTQADVGSALANLKIPGVGSLSQSTICRFEVLTLSHNNMIALKPILQAWLEEAEGAQREKMNKP was -0.654 ± 0.046.
As for RELEAFAERFKQRRIKLGVTQADVGSALANLKIPGVGSLSQSTICRFEMLTLSHNNMIALKPILQAWLEEAEGAQREKMNKP, the figure is -0.101 ± 0.037; as for RELEAFAERFKQRRIKLGVTQADVGSALANLKIPGVGSLSQSTICRFECLTLSHNNMIALKPILQAWLEEAEGAQREKMNKP, -0.082 ± 0.037.
On to RELEAFAERFKQRRIKLGVTQADVGSALANLKIPGVGSLSQSTICRFENLTLSHNNMIALKPILQAWLEEAEGAQREKMNKP, for which the abundance fitness worked out at 0.061 ± 0.045.
Take RELEAFAERFKQRRIKLGVTQADVGSALANLKIPGVGSLSQSTICRFEILTLSHNNMIALKPILQAWLEEAEGAQREKMNKP: the abundance fitness is -0.573 ± 0.063.
As for RELEAFAERFKQRRIKLGVTQADVGSALANLKIPGVGSLSQSTICRFEFLTLSHNNMIALKPILQAWLEEAEGAQREKMNKP, the figure is -0.632 ± 0.065; as for RELEAFAERFKQRRIKLGVTQADVGSALANLKIPGVGSLSQSTICRFEQLTLSHNNMIALKPILQAWLEEAEGAQREKMNKP, 0.052 ± 0.043.
The value for RELEAFAERFKQRRIKLGVTQADVGSALANLKIPGVGSLSQSTICRFETLTLSHNNMIALKPILQAWLEEAEGAQREKMNKP was 0.001 ± 0.035; that for RELEAFAERFKQRRIKLGVTQADVGSALANLKIPGVGSLSQSTICRFEELTLSHNNMIALKPILQAWLEEAEGAQREKMNKP was 0.045 ± 0.039.
The value for RELEAFAERFKQRRIKLGVTQADVGSALANLKIPGVGSLSQSTICRFEWLTLSHNNMIALKPILQAWLEEAEGAQREKMNKP was -0.541 ± 0.053.
In the case of RELEAFAERFKQRRIKLGVTQADVGSALANLKIPGVGSLSQSTICRFELLTLSHNNMIALKPILQAWLEEAEGAQREKMNKP, the abundance fitness was -0.181 ± 0.03.
As for RELEAFAERFKQRRIKLGVTQADVGSALANLKIPGVGSLSQSTICRFEALTLSHNNMIALKPILQAWLEEAEGAQREKMNKP, the figure is -0.004 ± 0.031; as for RELEAFAERFKQRRIKLGVTQADVGSALANLKIPGVGSLSQSTICRFEGLTLSHNNMIALKPILQAWLEEAEGAQREKMNKP, -0.002 ± 0.029.
For RELEAFAERFKQRRIKLGVTQADVGSALANLKIPGVGSLSQSTICRFERLTLSHNNMIALKPILQAWLEEAEGAQREKMNKP, the abundance fitness was -0.073 ± 0.029.
As for RELEAFAERFKQRRIKLGVTQADVGSALANLKIPGVGSLSQSTICRFEHLTLSHNNMIALKPILQAWLEEAEGAQREKMNKP, the figure is -0.062 ± 0.039.
Regarding RELEAFAERFKQRRIKLGVTQADVGSALANLKIPGVGSLSQSTICRFESLTISHNNMIALKPILQAWLEEAEGAQREKMNKP, the abundance fitness was -0.496 ± 0.29.
As for RELEAFAERFKQRRIKLGVTQADVGSALANLKIPGVGSLSQSTICRFESLTESHNNMIALKPILQAWLEEAEGAQREKMNKP, the abundance fitness is -0.132 ± 0.052.
In the case of RELEAFAERFKQRRIKLGVTQADVGSALANLKIPGVGSLSQSTICRFESLTCSHNNMIALKPILQAWLEEAEGAQREKMNKP, the abundance fitness is -0.351 ± 0.079.
Regarding RELEAFAERFKQRRIKLGVTQADVGSALANLKIPGVGSLSQSTICRFESLTDSHNNMIALKPILQAWLEEAEGAQREKMNKP, the abundance fitness was -0.229 ± 0.084.
As for RELEAFAERFKQRRIKLGVTQADVGSALANLKIPGVGSLSQSTICRFESLTFSHNNMIALKPILQAWLEEAEGAQREKMNKP, the figure is -0.24 ± 0.47; as for RELEAFAERFKQRRIKLGVTQADVGSALANLKIPGVGSLSQSTICRFESLTHSHNNMIALKPILQAWLEEAEGAQREKMNKP, -0.234 ± 0.2.
